Here are results for four molecules from US20120316325, “DNA APTAMER […] BINDING TO pLDH (PLASMODIUM LACTATE DEHYDROGENASE)” (POSTECH ACADEMY-INDUSTRY FOUNDATION, published 2012).

In general, Kd refers to a measure of binding affinity in units of concentration. A low value points to a tighter complex.

Series [1] deals with pfLDH (Plasmodium falciparum lactate dehydrogenase) (Plasmodium falciparum, UniProt Q27743 Q27743:1-316). Description: fluorescence bead assay, same buffer; binding also seen by EMSA. Conditions: chain copies: 4 inferred; label: FAM (fluorescence assay); Loop 1, G-C rich stem, Loop 2 (Mfold). On the procedure: A mixture of 16 μg of pvLDH and 10 μL of magnetic beads was incubated for one hour in 100 μL of binding buffer (20 mM Tris, 50 mM NaCl, 5 mM KCl, 5 mM MgCl2, pH 8.0), followed by washing twice with the binding buffer to remove unbound pvLDH. Then, the beads were incubated for one hour with various concentrations of FAM-labeled aptamers. The aptamers which were not reacted with pvLDH were removed by washing.
Only the FAM-labeled ssDNA aptamer which was bound to pvLDH immobilized to the magnetic beads was separated using a magnet and quantitatively analyzed by fluorescence assay (1420 Victor multilabel counter, PerkinElmer, USA). […] Kd values were also determined for pfLDH in the same manner.
In general terms: A gel shift assay detects complexes by their altered migration in electrophoresis.

Series [2] addresses T1, pvLDH (Plasmodium vivax lactate dehydrogenase) (Plasmodium vivax, UniProt Q4PRK9 Q4PRK9:1-316).
Series [3] has as its target T1, pvLDH (Plasmodium vivax lactate …). The experiment in a line: EMSA. The settings on record: tags: (His)6-tag, pET28a, E. coli BL21(DE3); chain copies: 4 inferred.

B1: Aptamer #2 (ssDNA)
DNA: GAACTCATTGGCTGGAGGCGGCAGTACCGCTTGAGTTC
As for B1, the Kd was determined as 0.0496 µM in series [1] and 0.0317 µM in series [2].

B2: Aptamer #1 (ssDNA)
DNA: GTTCGATTGGATTGTGCCGGAAGTGCTGGCTCGAAC
On to B2, for which the Kd in series [1] is 0.0387 µM; in series [2], 0.0168 µM.

B3: Aptamer #1 loop 2 mutant (ssDNA)
DNA: GTTCGATTGGATTGTGCCGGAGACGCTGGCTCGAAC
As to B3, the binding result in series [3] was “no binding”.

B4: Aptamer #1 loop 1 mutant (ssDNA)
DNA: GTTCGACCAAATTGTGCCGGAAGTGCTGGCTCGAAC
For B4, in series [3], the binding result is reported as “no binding”.
